# Experiment: yeast display, Sf9 membrane polyspecificity reagent, FACS + sequencing; frameworks hold sequencing errors
# Summary of the method: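 Genes from sorted yeast were amplified by colony PCR, read by MiSeq 2 × 250 sequencing and filtered on CDR length. These cells carried a synthetic nanobody library in Saccharomyces cerevisiae BJ5465 and were sorted by FACS into low and high (top ~1%) gates on anti-HA and streptavidin fluorescence. Polyreactivity is labelled according to the gate of origin.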
row,Sequence,polyreactivity (PSR sort gate)
1,QVQLVESGGGLVQAGGSLRLSCAASGFTLGFYAMAWYRPAPGKERELVAAINWRGGSTYYADSVKGRFTISRYNAKNTVYLQMNSLKPADTAVYYSNRVYRPSLYDYWGQGTQVSVSS,high polyreactivity
2,QVQLVESGGGLVQAGGSLRLSCAASGFTLGLYAMGWYRQAPGKERELVAAITAGGDSTDYADSVKGRFTISRDNAKNTVYLQMNSLKPEDTAVYYCAAPSYWLYYYILDSSDYWGQGTQVTVSS,high polyreactivity
3,QVQLVESGGGLVQAGGSLRLSCAASGFTLGSKVMGWYRQAHGKERELVAGISQSGGRTFYADSVKGRFTISRDNAKNTVYLQMNSLKPEDTAVYYCAAGYYPYWGQGTLVTVSS,low polyreactivity
4,QVQLVESGGGLVQAGGSLRLSCAASGFTLGYNAMGWYRQAPGTERELVAAITRSGGSTYYADSVKGRFTISRDNAKNTVYLQMNSLKPEDTAVYYCNARSVYGSKQEEYWGQGTQVTVSS,high polyreactivity
5,QVQLVESGGGLVQAGGSLRLSCAASGFTLHVYAMGWYRQAPGKERELVAAISTGGNTNYADSVKGRFTISRDNAKNTVYLQMNSLKAEDTAVYYCNARYTSRRSRRPYYEWGQGTQVTVSS,high polyreactivity
6,QVQLVESGGGLVQAGGSLRLSCAASGFTLIDYAMGWYRQAPGKERELVAAISGSGGRTYYADSVKGRFTISRDNAKNTVYLQMNSLKPEDTAVYYCAAGRRHVYKRRRYDYWGQGTQVTVSS,high polyreactivity
7,QVQLVESGGGLVQAGGSLRLSCAASGFTLLTYVMGWYRQAPGKERELVAAISKSGSRTYYADSVKGRFTISRDNAKNTVYVQMNSLKPEDTPVYYCAADTSAYRYDYWGQGTQVTVSS,high polyreactivity
8,QVQLVESGGGLVQAGGSLRLSCAASGFTLPLYAMGWYRQAPGKERELVAAISSGGGRTYYADSVKGRFTISRDNAKNTVYLQMNSLKPEDTAVYYCNVDRWWLGWYKFNYWGQGTQVTVSS,high polyreactivity
9,QVQLVESGGGLVQAGGSLRLSCAASGFTLPVYAMGWYRQAPGKERELVARITWSAGRTYYADSVKGRFTISRDNAKNTVYLQMNSLKPEDTAVYYCAAGPVSQQHSPGPHDYWGQGTQVTVSS,high polyreactivity
10,QVQLVESGGGLVQAGGSLRLSCAASGFTLQGYAMGWYRQAPGKERELVAAIRWIGTSTYYADSVKGRFTISRDNAKNTVYLQMNSLKPEDTAVYYCAAVVRRVRPEGSYNRWGHDYWGQGTQVTVSS,high polyreactivity
11,QVQLVESGGGLVQAGGSLRLSCAASGFTLQSNAMGWFRQATGKERELVAAISFRGGSTYYADSVKGRFTISRDNAKNTVYLQMNSLKPEDTAVYYCAADFYFHSAYNYGYWGQGTQVTVSS,low polyreactivity
12,QVQLVESGGGLVQAGGSLRLSCAASGFTLRKYVMGWYRQAPGKERELVAAITSSASSTYYADTVKGRFTISRDNAKNTVYLQMNSMKPEDTAVYYCAARGRPYRGSYYWGQGTQVTVSS,high polyreactivity
13,QVQLVESGGGLVQAGGSLRLSCAASGFTLRSYTMGWYRQAPGKERELVAAITSRGTSTYYADSVKGRFTISRDNAKNTVYLQMNSLKPEDTAVYYCADPIYNGYASWQVYYWGQGTQVTVSS,high polyreactivity
14,QVQLVESGGGLVQAGGSLRLSCAASGFTLRYYAMGWYRQAPGKERELVATINRSGASTYYADSVKGRFTISRDNAKNTVYLQMNRLKPEDTAVYYCNTATSRAYRYDYWGQGTQVTVSS,high polyreactivity
15,QVQLVESGGGLVQAGGSLRLSCAASGFTLSRYAMGWYRQAPGKERELVAAISSSGDSTYYADSVKGRFTISRDNAKNTVYLQMNSLKPEDTAVYYCNVYTYHRYDYWGQGTQVTVSS,high polyreactivity
16,QVQLVESGGGLVQAGGSLRLSCAASGFTLSYYAMGWYRQAPGKERELVASISAIGGITYYADSVKGRFTISRDNAKNTVYLQMNSLKPEDTAVYYCARQGRRYRRFDSWGQGTKVTVSS,high polyreactivity
17,QVQLVESGGGLVQAGGSLRLSCAASGFTLWLNAMGWYRQAPGKERELVAAITTSDDGTYYADSVKGRFTISRDNAKNSVYLQMNSLKPEDTAVYYCAADYYSVLYDYWGQGTQVTVSS,low polyreactivity
18,QVQLVESGGGLVQAGGSLRLSCAASGFTLYFYVMGWYRQAPGKERELVAAITSGGSTYYADSVKGRFTISRDNAKNTVYLQMNSLKPEDTAVYYCAARRSPSRRYLGNYWGQGTQVTVSS,high polyreactivity
19,QVQLVESGGGLVQAGGSLRLSCAASGFTLYHYAMGWYRQAPGKERELVAAITTSGSRTYYADSVKGRFTISRDNAKNTVYLQMNSLKPEDTAVYYCNAVASSTEYDYWGQGTQVTVSS,high polyreactivity
20,QVQLVESGGGLVQAGGSLRLSCAASGFTLYPYGMGWYRQAAGKERELVASISSRVGRTYYADSVKGRFTISRDNAKNTVYLQMNSLKPEDTAVYYCAASRLVRYQSRYASWGQGTQVTVSS,high polyreactivity
21,QVQLVESGGGLVQAGGSLRLSCAASGFTLYSNTMGWYRQATGKERELVAAINYSGGSTYYADSVKGRFTISRDNAKNTVYLQMNSLKPEDTPVYYCATDLHWLVTKYGYWGQGTQVTVSS,low polyreactivity
22,QVQLVESGGGLVQAGGSLRLSCAASGFTLYSYAMGWYRQAPGKERELVAAITRSGGITYYADSVKGRFTISRDNAKNTVYLQMNSLKPEDTAVYYCNAYRGGLSSEHYYWGQGTQVTVSS,high polyreactivity

row,Sequence,polyreactivity (PSR sort gate)
1,QVQLVESGGGLVQAGGSLRLSCAASGFTLYSYVMGWYRQAPGKERELVAAISRSGVSTHYADSVKGRFTISRDNAKNTVYLQMNSLKPEDTAVYYCNKVYYYVGTLDYWGQGTQVTVSS,high polyreactivity
2,QVQLVESGGGLVQAGGSLRLSCAASGFTNAYYAMGWYRQAPGKEREFVASITSGGSTYYADSVKGRFTISRDNAKNTVYLQMNSLKPEDTAVYYCAARSPFYSYTPGYEYWGQGTQVTVSS,high polyreactivity
3,QVQLVESGGGLVQAGGSLRLSCAASGFTRIYAMGWYRQAPGKEREMVAAISQRGGRTYYADSVKGRFTISRDNAKNTVSLQKNSLKQEDTAVYYCNSDLRSYNYPEYEYDYWGQGTQVTVSS,high polyreactivity
4,QVQLVESGGGLVQAGGSLRLSCAASGFTSAPYAMGWYRQAPGKERELVAAISSGDTTSYADSVKGRFTISRDNAKNTVYLQMNSLKPEDTAVYYCAAVYFNVIESYKTAGYDYWGQGTQVTVSS,low polyreactivity
5,QVQLVESGGGLVQAGGSLRLSCAASGFTSAPYAMGWYRQAPGKERELVAAITRTGGSTYYADSVKGRFTISRDNAKNTVYLQMNSLKPEDTAVYYCAVRLSGYQYHFRYGYWGQGTQVTVSS,high polyreactivity
6,QVQLVESGGGLVQAGGSLRLSCAASGFTSFANAMGWYRQAPGKERELVASITNSGGSTHYADSVKGRFTISRDNAKNTVYLQMNSLKPEDTAVYYCAADYWIVYRIYGSKYLGKWYDYWGQGTQVTVSS,low polyreactivity
7,QVQLVESGGGLVQAGGSLRLSCAASGFTSRRYAMGWYRQAPGKERELVAAISWSGGSTYYADSVKGRFTISRDNAKNTVYLQMNSLKPEDTAVYYCAAKRYSSKRGLDYWGQGTQVTVSS,high polyreactivity
8,QVQLVESGGGLVQAGGSLRLSCAASGFTSSRNAMGWYLQAPGKEREWVATISSGGDTYYADSVKGRFTISRDNAKNTVYLQMNSLKPVDTAVYYCNKDPLYDWGYDYWGHGTQVTVSS,low polyreactivity
9,QVQLVESGGGLVQAGGSLRLSCAASGFTSVDNAMGWYRQAPGNERELVAAIDTSGARTYYADSVKGRFTISRDNAKHTVYLQMNSLKPEDTAVYYCATEYVYDDRLYSTYYYWGQGTQVTVSS,high polyreactivity
10,QVQLVESGGGLVQAGGSLRLSCAASGFTSYDNAMGWYRPAPGKERELVAASTWDGGSTYYADSVKGRFTISRDNAKNTVDLQMNSLKPEDTAVYDCAADLADFYPRYNYWGQGTQVTVSS,low polyreactivity
11,QVQLVESGGGLVQAGGSLRLSCAASGFTTNYYARGWYRQAPGKERELVAAITTGGSTHYADSVKGRFTISRDNAKNTVYLQMNSLKPEDTAVYYCAAGTNRQQQRYFHHGGYYQYNYWGQGTQVTVSS,low polyreactivity
12,QVQLVESGGGLVQAGGSLRLSCAASGFTYKYYAMGWYRQAPGKERELVAAIRRSAGSTNYADSVKGRFTISRDNAKNTVYLQMNSLKPEDTAVYYCNTVGTRQPMDYWGQGTQVTVSS,high polyreactivity
13,QVQLVESGGGLVQAGGSLRLSCAASGFTYKYYVMGWYRQAPGKERELVASISKRGGSTRYADSVKGRFTISRDYAKNTVYLQMNSLKPEDNAVYYCAAAFVRRPPYVGYSRFDYWGQGTQVTVSS,high polyreactivity
14,QVQLVESGGGLVQAGGSLRLSCAASGFTYRWYAMGWYRQAPGKETELVAAISWDGGSTYYADSVKGRFTISRDNAKNTVYLQMNSLKPEDTAVYFCATVKSLRYWWQNEYGYWGQGTQVTVSS,high polyreactivity
15,QVQLVESGGGLVQAGGSLRLSCAASGFTYRYYAMGWYRQSPGKERELVAAISSGGNTRYADSVKGRFTISRDNAKNTVYLQMTSLKPEDTAVYYCARRPGDWKYVYTGDYWGQGTQVTVSS,high polyreactivity
16,QVQLVESGGGLVQAGGSLRLSCAASGFTYYHNAMGWYRQAPGKERELVAAISSSGDSTYYADSVKGRFTISRDNAKNTVYLQMKSLKPEDTAVYYCNDYFYYLSLYYYYWFNYDYWGQGTQVTVSS,low polyreactivity
17,QVQLVESGGGLVQAGGSLRLSCAASGGIFAPNAMGWYRQAPGKEREFVAAISTGGGSTRYADSVKGRFTISRDNAKNTVYLQMNSLKPEDTAVYYCAAELWYTWLGSPYDYWGQGTQVTVSS,low polyreactivity
18,QVQLVESGGGLVQAGGSLRLSCAASGGIFAYNVMGWYRQAPGKERELVAAISSAGSTYYADSVKGRFTISRDNAKNTVYLQMNSLKPEDTAVYYCAVRIGLKYDYWGQGTQVTVSS,low polyreactivity
19,QVQLVESGGGLVQAGGSLRLSCAASGGIFDGNAMGWYRQAPGKERELVAAISSGGITKYADSVKGRFTISRDNAKNTVYLQKNSLKPEDTAVYYCAASWYRYRFIRYDYWGQGTQVTVSS,high polyreactivity
20,QVQLVESGGGLVQAGGSLRLSCAASGGIFDGYAMGWYRQAPGKERELVAAINYSVDRTYYADSVKGRFTISRDNAKNTVYLQMNSLKPVDTAVYYCATVPRYVRFGYGYWGQGTQVTVSS,high polyreactivity
21,QVQLVESGGGLVQAGGSLRLSCAASGGIFDSYAMGWYRQAPGKERELVAAISRSGSTNYADSVKGRFTISRDNAKNTVYLQMYSLKPEDTAVYYCAASVRGIRYDYWGQGTQVTVSS,low polyreactivity

# — the nanobody polyreactivity screen of Harvey et al. (2022)
